In patent US20250381307A1, “RETRO-AAV AND USE IN TREATING NEURODEGENERATIVE DISEASES” (priority 2023, published 2025):

B1: AAV8R4: AAV8R capsid mutant R490Q (SEQ ID NO: 5) (protein)
chain: MAADGYLPDWLEDNLSEGIREWWALKPGAPKPKANQQKQDDGRGLVLPGYKYLGPFNGLDKGEPVNAADAAALEHDKAYDQQLQAGDNPYLRYNHADAEFQERLQEDTSFGGNLGRAVFQAKKRVLEPLGLVEEGAKTAPGKKRPVEPSPQRSPDSSTGIGKKGQQPARKRLNFGQTGDSESVPDPQPLGEPPAAPSGVGPNTMAAGGGAPMADNNEGADGVGSSSGNWHCDSTWLGDRVITTSTRTWALPTYNNHLYKQISNGTSGGATNDNTYFGYSTPWGYFDFNRFHCHFSPRDWQRLINNNWGFRPKRLSFKLFNIQVKEVTQNEGTKTIANNLTSTIQVFTDSEYQLPYVLGSAHQGCLPPFPADVFMIPQYGYLTLNDGSQAVGRSSFYCLEYFPSQMLRTGNNFQFTYTFEDVPFHSSYAHSQSLDRLMNPLIDQYLYYLSRTQTTGGTANTQTLGFSQGGPNTMANQAKNWLPGPCYRQQQVSTTTGQNNNSNFAWTAGTKYHLNGRNSLANPGIAMATHKDDEERFFPSNGILIFGKQNAARDNADYSDVMLTSEEEIKTTNPVATEEYGIVADNLQRGNLADQDYTKTARQAATADVNSQGALPGMVWQNRDVYLQGPIWAKIPHTDGNFHPSPLMGGFGLKHPPPQILIKNTPVPADPPTTFNQSKLNSFITQYSTGQVSVEIEWELQKENSKRWNPEIQYTSNYYKSINVDFAVNTEGVYSEPRPIGTRYLTRNL
B2: AAV8R9: AAV8R capsid mutant V125I + F536Y (SEQ ID NO: 10) (protein)
chain: MAADGYLPDWLEDNLSEGIREWWALKPGAPKPKANQQKQDDGRGLVLPGYKYLGPFNGLDKGEPVNAADAAALEHDKAYDQQLQAGDNPYLRYNHADAEFQERLQEDTSFGGNLGRAVFQAKKRILEPLGLVEEGAKTAPGKKRPVEPSPQRSPDSSTGIGKKGQQPARKRLNFGQTGDSESVPDPQPLGEPPAAPSGVGPNTMAAGGGAPMADNNEGADGVGSSSGNWHCDSTWLGDRVITTSTRTWALPTYNNHLYKQISNGTSGGATNDNTYFGYSTPWGYFDFNRFHCHFSPRDWQRLINNNWGFRPKRLSFKLFNIQVKEVTQNEGTKTIANNLTSTIQVFTDSEYQLPYVLGSAHQGCLPPFPADVFMIPQYGYLTLNDGSQAVGRSSFYCLEYFPSQMLRTGNNFQFTYTFEDVPFHSSYAHSQSLDRLMNPLIDQYLYYLSRTQTTGGTANTQTLGFSQGGPNTMANQAKNWLPGPCYRQQRVSTTTGQNNNSNFAWTAGTKYHLNGRNSLANPGIAMATHKDDEERYFPSNGILIFGKQNAARDNADYSDVMLTSEEEIKTTNPVATEEYGIVADNLQRGNLADQDYTKTARQAATADVNSQGALPGMVWQNRDVYLQGPIWAKIPHTDGNFHPSPLMGGFGLKHPPPQILIKNTPVPADPPTTFNQSKLNSFITQYSTGQVSVEIEWELQKENSKRWNPEIQYTSNYYKSINVDFAVNTEGVYSEPRPIGTRYLTRNL
B3: AAV8R8: AAV8R capsid mutant T495A (SEQ ID NO: 9) (protein)
chain: MAADGYLPDWLEDNLSEGIREWWALKPGAPKPKANQQKQDDGRGLVLPGYKYLGPFNGLDKGEPVNAADAAALEHDKAYDQQLQAGDNPYLRYNHADAEFQERLQEDTSFGGNLGRAVFQAKKRVLEPLGLVEEGAKTAPGKKRPVEPSPQRSPDSSTGIGKKGQQPARKRLNFGQTGDSESVPDPQPLGEPPAAPSGVGPNTMAAGGGAPMADNNEGADGVGSSSGNWHCDSTWLGDRVITTSTRTWALPTYNNHLYKQISNGTSGGATNDNTYFGYSTPWGYFDFNRFHCHFSPRDWQRLINNNWGFRPKRLSFKLFNIQVKEVTQNEGTKTIANNLTSTIQVFTDSEYQLPYVLGSAHQGCLPPFPADVFMIPQYGYLTLNDGSQAVGRSSFYCLEYFPSQMLRTGNNFQFTYTFEDVPFHSSYAHSQSLDRLMNPLIDQYLYYLSRTQTTGGTANTQTLGFSQGGPNTMANQAKNWLPGPCYRQQRVSTTAGQNNNSNFAWTAGTKYHLNGRNSLANPGIAMATHKDDEERFFPSNGILIFGKQNAARDNADYSDVMLTSEEEIKTTNPVATEEYGIVADNLQRGNLADQDYTKTARQAATADVNSQGALPGMVWQNRDVYLQGPIWAKIPHTDGNFHPSPLMGGFGLKHPPPQILIKNTPVPADPPTTFNQSKLNSFITQYSTGQVSVEIEWELQKENSKRWNPEIQYTSNYYKSINVDFAVNTEGVYSEPRPIGTRYLTRNL
B4: AAV8R5: AAV8R capsid mutant V125I (SEQ ID NO: 6) (protein)
chain: MAADGYLPDWLEDNLSEGIREWWALKPGAPKPKANQQKQDDGRGLVLPGYKYLGPFNGLDKGEPVNAADAAALEHDKAYDQQLQAGDNPYLRYNHADAEFQERLQEDTSFGGNLGRAVFQAKKRILEPLGLVEEGAKTAPGKKRPVEPSPQRSPDSSTGIGKKGQQPARKRLNFGQTGDSESVPDPQPLGEPPAAPSGVGPNTMAAGGGAPMADNNEGADGVGSSSGNWHCDSTWLGDRVITTSTRTWALPTYNNHLYKQISNGTSGGATNDNTYFGYSTPWGYFDFNRFHCHFSPRDWQRLINNNWGFRPKRLSFKLFNIQVKEVTQNEGTKTIANNLTSTIQVFTDSEYQLPYVLGSAHQGCLPPFPADVFMIPQYGYLTLNDGSQAVGRSSFYCLEYFPSQMLRTGNNFQFTYTFEDVPFHSSYAHSQSLDRLMNPLIDQYLYYLSRTQTTGGTANTQTLGFSQGGPNTMANQAKNWLPGPCYRQQRVSTTTGQNNNSNFAWTAGTKYHLNGRNSLANPGIAMATHKDDEERFFPSNGILIFGKQNAARDNADYSDVMLTSEEEIKTTNPVATEEYGIVADNLQRGNLADQDYTKTARQAATADVNSQGALPGMVWQNRDVYLQGPIWAKIPHTDGNFHPSPLMGGFGLKHPPPQILIKNTPVPADPPTTFNQSKLNSFITQYSTGQVSVEIEWELQKENSKRWNPEIQYTSNYYKSINVDFAVNTEGVYSEPRPIGTRYLTRNL
B5: AAV8R7: AAV8R capsid mutant A606S (SEQ ID NO: 8) (protein)
chain: MAADGYLPDWLEDNLSEGIREWWALKPGAPKPKANQQKQDDGRGLVLPGYKYLGPFNGLDKGEPVNAADAAALEHDKAYDQQLQAGDNPYLRYNHADAEFQERLQEDTSFGGNLGRAVFQAKKRVLEPLGLVEEGAKTAPGKKRPVEPSPQRSPDSSTGIGKKGQQPARKRLNFGQTGDSESVPDPQPLGEPPAAPSGVGPNTMAAGGGAPMADNNEGADGVGSSSGNWHCDSTWLGDRVITTSTRTWALPTYNNHLYKQISNGTSGGATNDNTYFGYSTPWGYFDFNRFHCHFSPRDWQRLINNNWGFRPKRLSFKLFNIQVKEVTQNEGTKTIANNLTSTIQVFTDSEYQLPYVLGSAHQGCLPPFPADVFMIPQYGYLTLNDGSQAVGRSSFYCLEYFPSQMLRTGNNFQFTYTFEDVPFHSSYAHSQSLDRLMNPLIDQYLYYLSRTQTTGGTANTQTLGFSQGGPNTMANQAKNWLPGPCYRQQRVSTTTGQNNNSNFAWTAGTKYHLNGRNSLANPGIAMATHKDDEERFFPSNGILIFGKQNAARDNADYSDVMLTSEEEIKTTNPVATEEYGIVADNLQRGNLADQDYTKTARQAATSDVNSQGALPGMVWQNRDVYLQGPIWAKIPHTDGNFHPSPLMGGFGLKHPPPQILIKNTPVPADPPTTFNQSKLNSFITQYSTGQVSVEIEWELQKENSKRWNPEIQYTSNYYKSINVDFAVNTEGVYSEPRPIGTRYLTRNL
B6: AAV8R6: AAV8R capsid mutant F536Y (SEQ ID NO: 7) (protein)
chain: MAADGYLPDWLEDNLSEGIREWWALKPGAPKPKANQQKQDDGRGLVLPGYKYLGPFNGLDKGEPVNAADAAALEHDKAYDQQLQAGDNPYLRYNHADAEFQERLQEDTSFGGNLGRAVFQAKKRVLEPLGLVEEGAKTAPGKKRPVEPSPQRSPDSSTGIGKKGQQPARKRLNFGQTGDSESVPDPQPLGEPPAAPSGVGPNTMAAGGGAPMADNNEGADGVGSSSGNWHCDSTWLGDRVITTSTRTWALPTYNNHLYKQISNGTSGGATNDNTYFGYSTPWGYFDFNRFHCHFSPRDWQRLINNNWGFRPKRLSFKLFNIQVKEVTQNEGTKTIANNLTSTIQVFTDSEYQLPYVLGSAHQGCLPPFPADVFMIPQYGYLTLNDGSQAVGRSSFYCLEYFPSQMLRTGNNFQFTYTFEDVPFHSSYAHSQSLDRLMNPLIDQYLYYLSRTQTTGGTANTQTLGFSQGGPNTMANQAKNWLPGPCYRQQRVSTTTGQNNNSNFAWTAGTKYHLNGRNSLANPGIAMATHKDDEERYFPSNGILIFGKQNAARDNADYSDVMLTSEEEIKTTNPVATEEYGIVADNLQRGNLADQDYTKTARQAATADVNSQGALPGMVWQNRDVYLQGPIWAKIPHTDGNFHPSPLMGGFGLKHPPPQILIKNTPVPADPPTTFNQSKLNSFITQYSTGQVSVEIEWELQKENSKRWNPEIQYTSNYYKSINVDFAVNTEGVYSEPRPIGTRYLTRNL

Test system: striatonigral projection neurons (striatal MSNs)
Assay: Retrograde labeling of striatal MSNs after AAV injection into the SNr (EYFP+ cell counting)
Assay type: in vivo, mice
Conditions: AAV8R capsid mutants; numbers of labeled neurons per animal
Text: Brain profiles of two epigenetic marks for enhancers and promoters, monomethylation of histone H3 lysine 4 (H3K4me1) and acetylation of histone H3 lysine 27 (H3K27ac) were checked and approximately 2 kilobase-long sequences around the transcriptional start site (TSS) that have high levels of H3K4me1 and/or H3K27ac were identified in mouse brain. Homologous sequences at equivalent positions of the human genome were then cloned onto an AAV backbone, and the activity of the homologous sequences in directing reporter expression was tested in mice after injections of AAVs into the SNr (FIG. 3A-C, TABLE 3).
Mice were anesthetized with sodium pentobarbital (Nembutal; 80 mg/kg, i.p.), and then placed into a stereotaxic device (KOPF). Eye cream was applied on both corneas to avoid dehydration. The skull above the targeted areas was thinned with a dental drill and carefully removed. Injections were conducted with a 10 μL syringe connected to a 33-Gauge needle (Neuros; Hamilton), using a microsyringe pump (Legato 130, KD Scientific). A total volume of 200 nL virus was injected into the SNr at a speed of 20 nL/min. The coordinates for the SNr were 3.4 mm posterior, 1.3 mm lateral, 4.8 mm ventral to the bregma.
Images were acquired using a confocal microscope (Carl Zeiss, LSM880) and an Axiolmager.Z1 microscope with apotome (Carl Zeiss). Brain structures were identified microscopically and in digital photos using a mouse brain atlas. To analyze the number of EYFP+ cells in the striatum, slices from rostral to caudal striatum were used. Every sixth section was analyzed, and numbers of EYFP+ cells were multiplied by six to acquire the approximate total number and mean number of cells per animal. Images were processed using ImageJ (NIH, USA), and final quantifications were independently performed manually by two blinded experimenters.

Molecule	Labeling Efficiency in Striatonigral Pathway
B1	+ (<5k)
B2	+ (<5k)
B3	+ (<5k)
B4	+ (<5k)
B5	+ (<5k)
B6	+ (<5k)
